Values of other authors, collected in patent US20250282866A1, “TREATMENT OF DISEASES RELATED TO ATP-BINDING CASSETTE TRANSPORTER 1 DYSFUNCTION USING TREM2 AGONISTS” (VIGIL NEUROSCIENCE, INC., priority 2020, published 2025).
Changes are numbered by the printed parent chain. Names may count otherwise. Like-named read-outs stand apart in the source and are kept apart here. Marks after values point to notes of the source that are not given here.

Molecular target: T1, human TREM2 (Homo sapiens, UniProt Q9NZC2)
T1 sequence (Q9NZC2 19-230): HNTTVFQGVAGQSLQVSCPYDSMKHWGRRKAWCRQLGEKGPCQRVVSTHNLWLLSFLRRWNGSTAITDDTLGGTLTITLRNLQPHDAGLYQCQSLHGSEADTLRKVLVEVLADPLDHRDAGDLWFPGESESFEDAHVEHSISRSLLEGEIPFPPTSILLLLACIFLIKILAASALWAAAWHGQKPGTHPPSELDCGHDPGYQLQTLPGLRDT
Details: for Binding Signal (fold over 6E7 Parental antibody) 1st screen 110 nM or 10 nM: concentration 110 nM or 10 nM (footnote a not given)

[1] = values printed without asterisk

B1: V85: 6E7 variant: VH T30R, I50T, Q99S; VL L54R (antibody, V domains shown)
VH: EVQLVQSGAEVKKPGESLKISCKGSGYSFRSYWIAWVRQMPGKGLEWMGTIYPGDSDTRYSPSFQGQVTISADKSISTAYLQWSSLKASDTAMYFCARSRTFYYDSSDYFDYWGQGTLVTVSS
VL: DIQMTQSPSSVSASVGDRVTITCRASQGISSWLAWYQQKPGKAPKLLIYAASSRQNGVPSRFSGSGSGTDFTLTISSLQPEDFATYFCQQADSFPRTFGQGTKLEIK
Binding Signal (fold over 6E7 Parental antibody) 1st screen 110 nM or 10 nM [1]: 5.41 fold over 6E7 Parental antibod | Binding Signal (fold over 6E7 Parental antibody) 2nd screen 2 nM (2nd screen): 5.41 fold over 6E7 Parental antibod | Binding Signal (fold over 6E7 Parental antibody) 2nd screen 10 nM (2nd screen): 5.37 fold over 6E7 Parental antibod

B2: V86: 6E7 variant: VH T30G, I34L, Q65E, Q99S; VL L54R (antibody, V domains shown)
VH: B1 VH with R30G, I34L, T50I, Q65E
VL: B1 VL
Binding Signal (fold over 6E7 Parental antibody) 1st screen 110 nM or 10 nM [1]: 4.80 fold over 6E7 Parental antibod | Binding Signal (fold over 6E7 Parental antibody) 2nd screen 2 nM (2nd screen): 5.17 fold over 6E7 Parental antibod | Binding Signal (fold over 6E7 Parental antibody) 2nd screen 10 nM (2nd screen): 5.02 fold over 6E7 Parental antibod

B3: V87: 6E7 variant: VH T30R, T58V, S63D, Q99S; VL N56W (antibody, V domains shown)
VH: B1 VH with T50I, T58V, S63D
VL: B1 VL with R54L, N56W
Binding Signal (fold over 6E7 Parental antibody) 1st screen 110 nM or 10 nM [1]: 3.84 fold over 6E7 Parental antibod | Binding Signal (fold over 6E7 Parental antibody) 2nd screen 2 nM (2nd screen): 4.86 fold over 6E7 Parental antibod | Binding Signal (fold over 6E7 Parental antibody) 2nd screen 10 nM (2nd screen): 3.93 fold over 6E7 Parental antibod

B4: V88: 6E7 variant: VH T30G; VL S53R, N56R, F94S (antibody, V domains shown)
VH: B1 VH with R30G, T50I, S99Q
VL: B1 VL with S53R, R54L, N56R, F94S
Binding Signal (fold over 6E7 Parental antibody) 1st screen 110 nM or 10 nM [1]: 4.92 fold over 6E7 Parental antibod | Binding Signal (fold over 6E7 Parental antibody) 2nd screen 2 nM (2nd screen): 5.57 fold over 6E7 Parental antibod | Binding Signal (fold over 6E7 Parental antibody) 2nd screen 10 nM (2nd screen): 5.30 fold over 6E7 Parental antibod

B5: V90: 6E7 variant: VH Y32E; VL S31R (antibody, V domains shown)
VH: B1 VH with R30T, Y32E, T50I, S99Q
VL: B1 VL with S31R, R54L
Binding Signal (fold over 6E7 Parental antibody) 1st screen 110 nM or 10 nM (values printed with asterisk): 0.33* fold over 6E7 Parental antibod | Binding Signal (fold over 6E7 Parental antibody) 2nd screen 100 nM (2nd screen, 100 nM): 0.36 fold over 6E7 Parental antibod

B6: V13: 6E7 variant: VH T30G, P62A, Q99G; VL N56G, F94M (antibody, V domains shown)
VH: B1 VH with R30G, T50I, P62A, S99G
VL: B1 VL with R54L, N56G, F94M
Binding Signal (fold over 6E7 Parental antibody) 1st screen 110 nM or 10 nM [1]: 1.31 fold over 6E7 Parental antibod | Binding Signal (fold over 6E7 Parental antibody) 2nd screen 2 nM (2nd screen): 1.15 fold over 6E7 Parental antibod | Binding Signal (fold over 6E7 Parental antibody) 2nd screen 10 nM (2nd screen): 1.35 fold over 6E7 Parental antibod

B7: V14: 6E7 variant: VH T30G, S56Q, Q99G; VL S53R (antibody, V domains shown)
VH: B1 VH with R30G, T50I, S56Q, S99G
VL: B1 VL with S53R, R54L
Binding Signal (fold over 6E7 Parental antibody) 1st screen 110 nM or 10 nM [1]: 4.71 fold over 6E7 Parental antibod | Binding Signal (fold over 6E7 Parental antibody) 2nd screen 2 nM (2nd screen): 2.57 fold over 6E7 Parental antibod | Binding Signal (fold over 6E7 Parental antibody) 2nd screen 10 nM (2nd screen): 4.64 fold over 6E7 Parental antibod

B8: V15: 6E7 variant: VH T30A, I50T, Q99S; VL S53W, F94Y (antibody, V domains shown)
VH: B1 VH with R30A
VL: B1 VL with S53W, R54L, F94Y
Binding Signal (fold over 6E7 Parental antibody) 1st screen 110 nM or 10 nM [1]: 5.23 fold over 6E7 Parental antibod | Binding Signal (fold over 6E7 Parental antibody) 2nd screen 2 nM (2nd screen): 4.72 fold over 6E7 Parental antibod | Binding Signal (fold over 6E7 Parental antibody) 2nd screen 10 nM (2nd screen): 4.78 fold over 6E7 Parental antibod

B9: V16: 6E7 variant: VH F29M, S56G, Q99S; VL S53N (antibody, V domains shown)
VH: B1 VH with F29M, R30T, T50I, S56G
VL: B1 VL with S53N, R54L
Binding Signal (fold over 6E7 Parental antibody) 1st screen 110 nM or 10 nM [1]: 4.01 fold over 6E7 Parental antibod | Binding Signal (fold over 6E7 Parental antibody) 2nd screen 2 nM (2nd screen): 3.57 fold over 6E7 Parental antibod | Binding Signal (fold over 6E7 Parental antibody) 2nd screen 10 nM (2nd screen): 4.04 fold over 6E7 Parental antibod

B10: V17: 6E7 variant: VH T30G, Q99S; VL L54R, F94S (antibody, V domains shown)
VH: B1 VH with R30G, T50I
VL: B1 VL with F94S
Binding Signal (fold over 6E7 Parental antibody) 1st screen 110 nM or 10 nM [1]: 5.37 fold over 6E7 Parental antibod | Binding Signal (fold over 6E7 Parental antibody) 2nd screen 2 nM (2nd screen): 4.22 fold over 6E7 Parental antibod | Binding Signal (fold over 6E7 Parental antibody) 2nd screen 10 nM (2nd screen): 5.51 fold over 6E7 Parental antibod

B11: V24: 6E7 variant: VH T58V, Q99S; VL N56K, R96H (antibody, V domains shown)
VH: B1 VH with R30T, T50I, T58V
VL: B1 VL with R54L, N56K, R96H
Binding Signal (fold over 6E7 Parental antibody) 1st screen 110 nM or 10 nM [1]: 2.64 fold over 6E7 Parental antibod | Binding Signal (fold over 6E7 Parental antibody) 2nd screen 2 nM (2nd screen): 1.42 fold over 6E7 Parental antibod | Binding Signal (fold over 6E7 Parental antibody) 2nd screen 10 nM (2nd screen): 2.90 fold over 6E7 Parental antibod

B12: V25: 6E7 variant: VH T30G, I50L, Q99S; VL Q55A, F94M (antibody, V domains shown)
VH: B1 VH with R30G, T50L
VL: B1 VL with R54L, Q55A, F94M
Binding Signal (fold over 6E7 Parental antibody) 1st screen 110 nM or 10 nM [1]: 4.23 fold over 6E7 Parental antibod | Binding Signal (fold over 6E7 Parental antibody) 2nd screen 2 nM (2nd screen): 3.15 fold over 6E7 Parental antibod | Binding Signal (fold over 6E7 Parental antibody) 2nd screen 10 nM (2nd screen): 4.70 fold over 6E7 Parental antibod

B13: V26: 6E7 variant: VH A35G, I50T, F102M, Y112A; VL N56R, F94Y (antibody, V domains shown)
VH: B1 VH with R30T, A35G, S99Q, F102M, Y112A
VL: B1 VL with R54L, N56R, F94Y
Binding Signal (fold over 6E7 Parental antibody) 1st screen 110 nM or 10 nM [1]: 3.57 fold over 6E7 Parental antibod | Binding Signal (fold over 6E7 Parental antibody) 2nd screen 2 nM (2nd screen): 2.83 fold over 6E7 Parental antibod | Binding Signal (fold over 6E7 Parental antibody) 2nd screen 10 nM (2nd screen): 3.47 fold over 6E7 Parental antibod

B14: V27: 6E7 variant: VH S61A, Q99S; VL N56R (antibody, V domains shown)
VH: B1 VH with R30T, T50I, S61A, A97V
VL: B1 VL with R54L, N56R
Binding Signal (fold over 6E7 Parental antibody) 1st screen 110 nM or 10 nM [1]: 5.50 fold over 6E7 Parental antibod | Binding Signal (fold over 6E7 Parental antibody) 2nd screen 2 nM (2nd screen): 5.67 fold over 6E7 Parental antibod | Binding Signal (fold over 6E7 Parental antibody) 2nd screen 10 nM (2nd screen): 5.69 fold over 6E7 Parental antibod

B15: V28: 6E7 variant: VH T30Q, I50T, Y103F; VL N56S, F94L (antibody, V domains shown)
VH: B1 VH with R30Q, S99Q, Y103F
VL: B1 VL with R54L, N56S, F94L
Binding Signal (fold over 6E7 Parental antibody) 1st screen 110 nM or 10 nM [1]: 3.08 fold over 6E7 Parental antibod | Binding Signal (fold over 6E7 Parental antibody) 2nd screen 2 nM (2nd screen): 2.63 fold over 6E7 Parental antibod | Binding Signal (fold over 6E7 Parental antibody) 2nd screen 10 nM (2nd screen): 3.61 fold over 6E7 Parental antibod

B16: V36: 6E7 variant: VH I34L, Q99S; VL L54R, F94Y (antibody, V domains shown)
VH: B1 VH with R30T, I34L, T50I
VL: B1 VL with F94Y
Binding Signal (fold over 6E7 Parental antibody) 1st screen 110 nM or 10 nM [1]: 3.38 fold over 6E7 Parental antibod | Binding Signal (fold over 6E7 Parental antibody) 2nd screen 2 nM (2nd screen): 4.00 fold over 6E7 Parental antibod | Binding Signal (fold over 6E7 Parental antibody) 2nd screen 10 nM (2nd screen): 3.44 fold over 6E7 Parental antibod

B17: V37: 6E7 variant: VH F29H, Q65A, Q99S; VL N56W, F94Y (antibody, V domains shown)
VH: B1 VH with F29H, R30T, T50I, Q65A
VL: B1 VL with R54L, N56W, F94Y
Binding Signal (fold over 6E7 Parental antibody) 1st screen 110 nM or 10 nM [1]: 3.46 fold over 6E7 Parental antibod | Binding Signal (fold over 6E7 Parental antibody) 2nd screen 2 nM (2nd screen): 3.69 fold over 6E7 Parental antibod | Binding Signal (fold over 6E7 Parental antibody) 2nd screen 10 nM (2nd screen): 3.49 fold over 6E7 Parental antibod

B18: V38: 6E7 variant: VH T30G, T58V; VL L54R, F94H (antibody, V domains shown)
VH: B1 VH with R30G, T50I, T58V, S99Q
VL: B1 VL with F94H
Binding Signal (fold over 6E7 Parental antibody) 1st screen 110 nM or 10 nM [1]: 4.34 fold over 6E7 Parental antibod | Binding Signal (fold over 6E7 Parental antibody) 2nd screen 2 nM (2nd screen): 3.44 fold over 6E7 Parental antibod | Binding Signal (fold over 6E7 Parental antibody) 2nd screen 10 nM (2nd screen): 4.36 fold over 6E7 Parental antibod

B19: V39: 6E7 variant: VH T30G, S61N, Q99G; VL Q55V, F94S (antibody, V domains shown)
VH: B1 VH with R30G, T50I, S61N, S99G
VL: B1 VL with R54L, Q55V, F94S
Binding Signal (fold over 6E7 Parental antibody) 1st screen 110 nM or 10 nM [1]: 6.15 fold over 6E7 Parental antibod | Binding Signal (fold over 6E7 Parental antibody) 2nd screen 2 nM (2nd screen): 5.11 fold over 6E7 Parental antibod | Binding Signal (fold over 6E7 Parental antibody) 2nd screen 10 nM (2nd screen): 5.81 fold over 6E7 Parental antibod
